± gives the uncertainty stated by the source.
Experiment: self-splicing fitness, log relative to wild type (ln ratio); higher = more splicing; Tetrahymena group I intron in knt gene, E. coli kanamycin selection, DiMSum; sequences stand for … in CUCUCU…GGAGGGAAAAGUUAUCAGGCAUGCACCUGGUAGCUAGUCUUUAAACCAAUAGAUUGCAUCGGUUUAAAAGGCAAGACCGUCAAAUUGCGGGAAAGGGGUCAACAGCCGUUCAGUACCAAGUCUCAGGGGAAACUUUGAGAUGGCCUUGCAAAGGGUAUGGUAAUAAGCUGACGGACAUGGUCCUAACCACGCAGCCAAGUCCUAAGUCAACAGAUCUUCUGUUGAUAUGGAUGCAGUUCACAGACUAAAUGUCGGUCGGGGAAGAUGUAUUCUUCUCAUAAGAUAUAGUCGGACCUCUCCUUAAUGGGAGCUAGCGGAUGAAGUGAUGCAACACUGGAGCCGCUGGGAACUAAUUUGUAUGCGAAAGUAUAUUGAUUAGUUUUGGAGUACUCGUGGUCG
Outline: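 Pooled colonies went to amplicon sequencing on an Illumina HiSeq 2500 after six replicate transformations. The plates were LB agar with 100 μg/mL carbenicillin, 50 μM IPTG and 0.2% rhamnose, with or without 25 μg/mL kanamycin, incubated overnight at 37°C or 30°C. The E. coli BL21(DE3) library had all eight P1ex-region intron nucleotides randomised, the intron placed in the knt kanamycin-resistance gene on pET-22b(+). DiMSum fitness is the error-weighted combination of replicate fold changes, kanamycin against none, normalised to wild type.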

Sequence	self-splicing fitness (ln) (30 °C)	self-splicing fitness (ln) (37 °C)
CUGCAGCAAUAUUACGGUAA	-2.7 ± 0.16	-1.76 ± 0.14
GUCAAGCAAUAUUACGUUGU	-3.69 ± 0.13	-2.76 ± 0.13
GUAGAGCAAUAUUACGCUUG	-0.837 ± 0.12	-0.536 ± 0.19
UCUGAGCAAUAUUACGAGUG	-3.98 ± 0.4	-1.24 ± 0.22
UCUUAGCAAUAUUACGCGGU	-3.5 ± 0.2	-2.76 ± 0.26
AGCUAGCAAUAUUACGCCAA	-1.7 ± 0.27	-1.75 ± 0.2
UAAUAGCAAUAUUACGGGAU	-4.36 ± 0.46	-2.49 ± 0.22
UAAUAGCAAUAUUACGGCAA	-1.99 ± 0.14	-0.69 ± 0.12
AGCAAGCAAUAUUACGACCC	-0.234 ± 0.18	-0.196 ± 0.25
CUAGAGCAAUAUUACGGUGU	-4.1 ± 0.19	-2.92 ± 0.27
CUGAAGCAAUAUUACGCUGC	-2.12 ± 0.34	
UUCCAGCAAUAUUACGUAGG	-4.29 ± 0.42	-2.44 ± 0.23
AAUAAGCAAUAUUACGAUUG	-2.35 ± 0.18	-1.91 ± 0.23
UCAUAGCAAUAUUACGCGCA	0.0597 ± 0.12	0.225 ± 0.12
CAUUAGCAAUAUUACGUACG	-0.341 ± 0.09	0.593 ± 0.12
CUUUAGCAAUAUUACGUUGA		-3.01 ± 0.35
CCUAAGCAAUAUUACGUUAU	-3.35 ± 0.17	-2.85 ± 0.24
CCAUAGCAAUAUUACGGCUU	-3.97 ± 0.31	-2.19 ± 0.2
UCGAAGCAAUAUUACGCGCU	-2.18 ± 0.2	-0.209 ± 0.24
AGCCAGCAAUAUUACGUAAC	-2.67 ± 0.1	-2.04 ± 0.2
CUCAAGCAAUAUUACGCGUA	-3.49 ± 0.22	-1.78 ± 0.15

Sequence	self-splicing fitness (ln) (30 °C)	self-splicing fitness (ln) (37 °C)
AAACAGCAAUAUUACGAGCA	-1.76 ± 0.091	-1.09 ± 0.082
GUUGAGCAAUAUUACGUCAG	-2.67 ± 0.17	-2.86 ± 0.31
GUUAAGCAAUAUUACGGUCA	-0.91 ± 0.098	-0.943 ± 0.092
CUAAAGCAAUAUUACGAAAC	-3.29 ± 0.45	-2.67 ± 0.41
AGGAAGCAAUAUUACGAUUA	-1.47 ± 0.08	-1.21 ± 0.069
GGAUAGCAAUAUUACGGGUG	-2.79 ± 0.33	-0.239 ± 0.17
CAAAAGCAAUAUUACGUAAA	-1.47 ± 0.092	-1.32 ± 0.11
UUAAAGCAAUAUUACGCGUU	-2.44 ± 0.12	-1.49 ± 0.13
GUUAAGCAAUAUUACGUGUU	-3.27 ± 0.14	-1.11 ± 0.1
UGCAAGCAAUAUUACGCUAA	-2.73 ± 0.17	0.000151 ± 0.11
ACAUAGCAAUAUUACGAUAA	-2.16 ± 0.13	-1.72 ± 0.17
GCUGAGCAAUAUUACGCCUA	-1.55 ± 0.32	-0.595 ± 0.2
AAACAGCAAUAUUACGGAGA	-2.87 ± 0.15	-2.57 ± 0.15
GCGGAGCAAUAUUACGCUCG	-2.94 ± 0.43	
UACUAGCAAUAUUACGAAUG	-0.956 ± 0.083	0.689 ± 0.12
GAGCAGCAAUAUUACGAUCG	-2.76 ± 0.17	-2.48 ± 0.26
UUGAAGCAAUAUUACGCAUC	-3.54 ± 0.33	
UAGUAGCAAUAUUACGUGCC	-2.98 ± 0.25	-2.11 ± 0.27
AUAGAGCAAUAUUACGCGCA	-0.749 ± 0.14	-0.253 ± 0.17
ACUGAGCAAUAUUACGCCUC	-2.32 ± 0.31	
AGACAGCAAUAUUACGUAAG	-1.33 ± 0.075	-0.396 ± 0.088

Sequence	self-splicing fitness (ln) (30 °C)	self-splicing fitness (ln) (37 °C)
AUGCAGCAAUAUUACGUAGG	-1.72 ± 0.082	-1.16 ± 0.11
GAGAAGCAAUAUUACGAUAA	-2.02 ± 0.14	-0.42 ± 0.15
AGCUAGCAAUAUUACGCGAC	-3.48 ± 0.47	-2.38 ± 0.43
CUUGAGCAAUAUUACGACUG	-0.383 ± 0.084	0.0311 ± 0.12
GGCCAGCAAUAUUACGCUCU	-0.639 ± 0.12	-0.0247 ± 0.17
GGCUAGCAAUAUUACGCCUA	-0.205 ± 0.23	-1.69 ± 0.3
CAUCAGCAAUAUUACGUCCU	-3.78 ± 0.22	-1.91 ± 0.22
UGGUAGCAAUAUUACGAGUA	-0.457 ± 0.19	-0.963 ± 0.2
UACAAGCAAUAUUACGUAAU	-2.72 ± 0.18	-0.0213 ± 0.15
UCAUAGCAAUAUUACGCUGG	-3.05 ± 0.19	-2.3 ± 0.16
GUGUAGCAAUAUUACGGGAC	-3.44 ± 0.32	-2.03 ± 0.28
CAGAAGCAAUAUUACGCAAU	-4.46 ± 0.42	-2.79 ± 0.24
AGCAAGCAAUAUUACGCUCG	-2.82 ± 0.27	
UUCCAGCAAUAUUACGACGU	-2.06 ± 0.18	-2.18 ± 0.2
UGCCAGCAAUAUUACGUCUU	-2.22 ± 0.18	-1.86 ± 0.21
GUUCAGCAAUAUUACGCACA	1.48 ± 0.34	-1.71 ± 0.49
UUACAGCAAUAUUACGAUUC	-2.03 ± 0.092	-0.667 ± 0.097
CACCAGCAAUAUUACGAGAG	-0.95 ± 0.054	-0.673 ± 0.069
AUGGAGCAAUAUUACGGCUC	-2.53 ± 0.45	
UCCCAGCAAUAUUACGAUAU	-3.15 ± 0.18	-1.74 ± 0.22
